B1: H1_L1.134 (antibody, V domains shown)
VH: EVQLVESGGGLVQPGGSLRLSCAASGFTFSSFGMHWVRQAPGKGLEWVSYISSGSSIIYYADSVKGRFTISRDNAKNSLYLQMNSLRAEDTAVYYCARGGRLVWSPDYWGQGTLVTVSS
VL: DIVMTQSPDSLAVSLGERATINCKSSQSLLNSGNQKNYLTWYQQKPGQPPKLLIYWASTRESGVPDRFTGSGSGTDFTLTISSLQAEDVAVYYCQNDYSKPFTFGSGTKLEIKR
notes: also called VL-Y100K; Kabat 94
B2: H1_L1.132 (antibody, V domains shown)
VH: B1 VH
VL: B1 VL with K100Q
notes: also called VL-Y100Q; Kabat 94
B3: H1_L1.129 (antibody, human IgG1, kappa, V domains shown)
VH: B1 VH
VL: B1 VL with K100W
notes: also called VL-Y100W; Kabat 94
B4: H1_L1.128 (antibody, V domains shown)
VH: B1 VH
VL: B1 VL with K100L
notes: also called VL-Y100L; Kabat 94
B5: H1_L1.133 (antibody, V domains shown)
VH: B1 VH
VL: B1 VL with K100D
notes: also called VL-Y100D; Kabat 94
B6: H1_L1.127 (antibody, V domains shown)
VH: B1 VH
VL: B1 VL with K100H
notes: also called VL-Y100H; Kabat 94
B7: H1.210_L1.1 (XENP32826) (antibody, human IgG1, kappa, V domains shown)
VH: B1 VH with R101W, L102H, W104F
VL: B1 VL with N31H, K100Y
notes: VH substitution R109W/L110H/W112F (Xencor #); R97W/L98H/W100F (Kabat); also called mAb C[PD1]_H1.210_L1.1_IgG1_PVA_/S267K
B8: H1.195_L1.1 (XENP32811) (antibody, human IgG1, kappa, V domains shown)
VH: B1 VH with L102Q, W104F
VL: B1 VL with N31H, K100Y
notes: VH substitution L110Q/W112F (Xencor #); L98Q/W100F (Kabat); also called mAb C[PD1]_H1.195_L1.1_IgG1_PVA_/S267K
B9: H1.207_L1.1 (XENP32823) (antibody, human IgG1, kappa, V domains shown)
VH: B1 VH with W104F, S105T
VL: B1 VL with N31H, K100Y
notes: VH substitution W112F/S113T (Xencor #); W100F/S100aT (Kabat); also called mAb C[PD1]_H1.207_L1.1_IgG1_PVA_/S267K
B10: H1.205_L1.1 (XENP32821) (antibody, human IgG1, kappa, V domains shown)
VH: B1 VH with R101K, W104F, S105A
VL: B1 VL with N31H, K100Y
notes: VH substitution R109K/W112F/S113A (Xencor #); R97K/W100F/S100aA (Kabat); also called mAb C[PD1]_H1.205_L1.1_IgG1_PVA_/S267K
B11: H1.199_L1.1 (XENP32815) (antibody, human IgG1, kappa, V domains shown)
VH: B1 VH with V103I, W104F, P106S
VL: B1 VL with N31H, K100Y
notes: VH substitution V111I/W112F/P114S (Xencor #); V99I/W100F/P100bS (Kabat); also called mAb C[PD1]_H1.199_L1.1_IgG1_PVA_/S267K
B12: H1.197_L1.1 (XENP32813) (antibody, human IgG1, kappa, V domains shown)
VH: B1 VH with V103L, W104F
VL: B1 VL with N31H, K100Y
notes: VH substitution V111L/W112F (Xencor #); V99L/W100F (Kabat); also called mAb C[PD1]_H1.197_L1.1_IgG1_PVA_/S267K
B13: H1.198_L1.1 (XENP32814) (antibody, human IgG1, kappa, V domains shown)
VH: B1 VH with W104F, S105N
VL: B1 VL with N31H, K100Y
notes: VH substitution W112F/S113N (Xencor #); W100F/S100aN (Kabat); also called mAb C[PD1]_H1.198_L1.1_IgG1_PVA_/S267K
B14: H1.211_L1.1 (XENP32827) (antibody, human IgG1, kappa, V domains shown)
VH: B1 VH with W104F, S105A
VL: B1 VL with N31H, K100Y
notes: VH substitution W112F/S113A (Xencor #); W100F/S100aA (Kabat); also called mAb C[PD1]_H1.211_L1.1_IgG1_PVA_/S267K
B15: H1.202_L1.1 (XENP32818) (antibody, human IgG1, kappa, V domains shown)
VH: B1 VH with V103Q, W104F, S105T
VL: B1 VL with N31H, K100Y
notes: VH substitution V111Q/W112F/S113T (Xencor #); V99Q/W100F/S100aT (Kabat); also called mAb C[PD1]_H1.202_L1.1_IgG1_PVA_/S267K
B16: H1.208_L1.1 (XENP32824) (antibody, human IgG1, kappa, V domains shown)
VH: B1 VH with L102S, W104F
VL: B1 VL with N31H, K100Y
notes: VH substitution L110S/W112F (Xencor #); L98S/SW100F (Kabat); also called mAb C[PD1]_H1.208_L1.1_IgG1_PVA_/S267K

Drawing on patent US20240294593A1 (Genentech, published 2024), this text covers Kd, koff and kon for 16 molecules.

Substitutions are numbered along the chain they refer to. In names and notes the source's numbering stands.

One assay deals with T1, human PD-1-His (human, UniProt Q15116 25-167, limits assumed).
T1 construct: Antigen of the Octet assays; not shown: His tag
T1 sequence (Q15116 25-167 limits assumed): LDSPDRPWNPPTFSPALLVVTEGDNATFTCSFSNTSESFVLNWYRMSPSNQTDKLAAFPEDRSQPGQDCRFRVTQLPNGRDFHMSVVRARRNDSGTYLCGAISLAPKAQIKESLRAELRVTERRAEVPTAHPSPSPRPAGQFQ
The assay is described as follows: Octet.
B1 registered a Kd of 0.0913 µM, a koff of 0.0153 s⁻¹ and an on-rate (kon) of 168000 M⁻¹ s⁻¹.

B2: the Kd came out at 0.037 µM, the koff was determined as 0.00615 s⁻¹ and the kon was 166000 M⁻¹ s⁻¹.

B3 returned a Kd of 0.00944 µM, a koff of 0.001 s⁻¹ and an on-rate constant (kon) of 106000 M⁻¹ s⁻¹.

Consider B4, for which the Kd came out at 0.186 µM, the koff turned out to be 0.0911 s⁻¹ and the kon stood at 490000 M⁻¹ s⁻¹.

Take B5: the Kd was found to be 0.405 µM, the koff turned out to be 0.0264 s⁻¹ and the kon was found to be 65100 M⁻¹ s⁻¹.

The molecule B6 had a Kd of 0.0555 µM, a koff of 0.00741 s⁻¹ and a kon of 133000 M⁻¹ s⁻¹.

The target in the next assay is T1, human PD-1-His. Kind of assay: Octet (BLI), AHC capture of the bivalent mAb, PD-1 in solution.
The molecule B7 came in with a koff of 0.00244 s⁻¹ and a kon of 154000 M⁻¹ s⁻¹.

In turn, B8 had a koff of 0.00436 s⁻¹ and an on-rate constant (kon) of 104000 M⁻¹ s⁻¹.

The molecule B9 had a koff of 0.00151 s⁻¹ and a kon of 73600 M⁻¹ s⁻¹.

B10 gave a koff of 0.00296 s⁻¹ and an association rate constant (kon) of 111000 M⁻¹ s⁻¹.

In the case of B11, the koff is 0.00155 s⁻¹ and the kon was determined as 99700 M⁻¹ s⁻¹.

B12 registered a koff of 0.00436 s⁻¹ and an association rate constant (kon) of 123000 M⁻¹ s⁻¹.

Take B13: the koff was found to be 0.00142 s⁻¹ and the kon came out at 78000 M⁻¹ s⁻¹.

Take B14: the koff worked out at 0.00252 s⁻¹ and the kon came to 133000 M⁻¹ s⁻¹.

For the molecule B15, the koff turned out to be 0.00239 s⁻¹ and the kon came out at 104000 M⁻¹ s⁻¹.

Consider B16, for which the koff came to 0.00509 s⁻¹ and the kon amounted to 77700 M⁻¹ s⁻¹.

The target of a further assay is T1, human PD-1-His. Kind of assay: Octet (BLI), AHC biosensors capture the bivalent mAb, dipped into multiple concentrations of PD-1; KDapp per legend.
As to B7, the Kd is 0.0159 µM.

The molecule B8 yielded a Kd of 0.0419 µM.

The molecule B9 registered a Kd of 0.0205 µM.

Regarding B10, the Kd stood at 0.0268 µM.

In turn, B11 came in with a Kd of 0.0155 µM.

Molecule B12 came in with a Kd of 0.0354 µM.

Turning to B13, the Kd was 0.0182 µM.

On to B14, for which the Kd turned out to be 0.019 µM.

On to B15, for which the Kd stood at 0.023 µM.

Consider B16, for which the Kd was 0.0655 µM.
